The values that follow are results of earlier work, collected in patent US9814672B2, “Echogenic vehicle for clinical delivery of plasminogen activator and other fibrin-binding therapeutics to thrombi” (priority 2007, dated 2017).

For orientation: Kd means a measure of binding affinity in units of concentration.

One data set deals with T1, fibrinogen αC domains (Homo sapiens, UniProt P02671).
T1 sequence (P02671 240-629 limits assumed): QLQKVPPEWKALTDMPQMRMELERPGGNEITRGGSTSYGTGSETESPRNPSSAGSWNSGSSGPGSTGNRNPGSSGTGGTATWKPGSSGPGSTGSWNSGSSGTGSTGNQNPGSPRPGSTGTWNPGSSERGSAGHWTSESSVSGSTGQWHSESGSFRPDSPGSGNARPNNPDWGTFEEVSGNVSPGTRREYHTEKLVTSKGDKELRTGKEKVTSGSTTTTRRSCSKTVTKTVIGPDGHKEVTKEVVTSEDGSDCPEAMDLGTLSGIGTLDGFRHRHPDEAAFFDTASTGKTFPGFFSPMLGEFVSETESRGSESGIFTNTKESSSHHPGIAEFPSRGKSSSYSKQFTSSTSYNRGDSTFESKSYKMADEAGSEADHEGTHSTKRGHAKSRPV
The following applies: Tsurupa and Medved 2001; cited from earlier work.

A further data set has as its system occluded femoral artery. Conditions: tPA infusion with transcutaneous ultrasound; cited from earlier work.

With “tPA: Recombinant tissue-plasminogen activator (Activase®, Genentech Inc.), used as the thrombolytic agent [reference compound]”, the Kd with fibrinogen αC domains was 33 ± 5 nM. Also, the “decrease in time for recanalization” value with occluded femoral artery was 80%.
